Data reported in patent US7659081B2, “Determination of AM-binding proteins and the association of adrenomedullin (AM) therewith” (The United States of America as represented by the …, priority 1999, dated 2010).
Where no end group is shown, it is not given here.

biological target: AM/fH complex (Homo sapiens, UniProt P08603); assay: not given; settings: 3M NaSCN
Procedure: (§1) Alternatively, the AM/fH interaction was analyzed using a multi-well assay. In accordance with this assay, a 96-well polyvinylchloride (PVC) plate was coated with factor H (5 ng/well, Sigma, St. Louis, Mo.). The plate was blocked with a solution containing TBS, 0.1% ATC, and 0.1% TWEEN® 20 nonionic detergent, and then incubated with fluorescein-labeled AM (50 nM) for 2 hr. Prior to the development of the assay, the wells were incubated for various time periods with PBS or 3M NaSCN pH 7.4. Following this, the plate was washed and incubated with anti-fluorescein polyclonal antibody (1:1000, Molecular Probes) and ^125I-Protein A (Amersham Pharmacia Biotech). Radioactivity was determined using a gamma counter. FIG. 6B.

AM/fH complex, sequence (P08603 19-1231, one chain of several): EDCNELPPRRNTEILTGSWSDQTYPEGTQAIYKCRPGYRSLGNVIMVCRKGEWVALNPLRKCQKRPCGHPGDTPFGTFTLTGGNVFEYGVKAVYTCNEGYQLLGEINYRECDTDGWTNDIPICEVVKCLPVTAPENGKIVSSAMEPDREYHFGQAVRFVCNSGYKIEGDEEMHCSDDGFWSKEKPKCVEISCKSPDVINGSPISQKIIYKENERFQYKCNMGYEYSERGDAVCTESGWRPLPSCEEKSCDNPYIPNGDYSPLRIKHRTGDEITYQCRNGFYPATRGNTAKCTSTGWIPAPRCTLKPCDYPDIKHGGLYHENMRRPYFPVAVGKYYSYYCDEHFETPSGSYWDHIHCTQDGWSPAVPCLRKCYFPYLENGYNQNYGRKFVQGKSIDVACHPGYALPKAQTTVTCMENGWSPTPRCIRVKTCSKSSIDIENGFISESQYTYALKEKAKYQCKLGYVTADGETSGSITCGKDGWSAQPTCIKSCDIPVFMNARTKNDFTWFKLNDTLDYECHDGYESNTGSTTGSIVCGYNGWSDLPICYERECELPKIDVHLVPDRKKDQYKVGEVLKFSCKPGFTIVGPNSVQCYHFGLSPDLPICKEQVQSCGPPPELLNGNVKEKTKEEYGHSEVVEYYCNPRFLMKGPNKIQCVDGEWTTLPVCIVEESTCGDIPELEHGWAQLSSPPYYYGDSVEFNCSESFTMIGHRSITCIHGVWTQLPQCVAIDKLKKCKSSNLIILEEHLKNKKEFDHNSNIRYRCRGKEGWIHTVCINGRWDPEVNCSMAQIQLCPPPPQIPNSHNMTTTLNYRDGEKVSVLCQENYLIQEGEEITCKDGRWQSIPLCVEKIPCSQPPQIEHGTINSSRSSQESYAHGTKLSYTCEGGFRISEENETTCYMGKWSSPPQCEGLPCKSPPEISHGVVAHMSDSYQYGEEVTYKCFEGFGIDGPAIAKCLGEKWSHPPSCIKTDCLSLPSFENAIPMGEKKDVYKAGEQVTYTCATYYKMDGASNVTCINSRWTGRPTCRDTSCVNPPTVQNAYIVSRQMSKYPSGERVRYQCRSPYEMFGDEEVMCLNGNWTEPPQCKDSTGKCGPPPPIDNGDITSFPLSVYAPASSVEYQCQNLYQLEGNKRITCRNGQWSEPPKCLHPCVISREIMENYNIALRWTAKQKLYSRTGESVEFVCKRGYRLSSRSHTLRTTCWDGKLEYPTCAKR

Row | Molecule | Dissociation of AM/fH complex
1 | N#C[S-].[Na+] [NaSCN, sodium thiocyanate] | dissociated

test system: not listed separately; assay: Storage of non-radioactively labeled AM; type: physicochemical; settings: stored at 4° C. for as long as 3 months
Procedure: Non-radioactive labeling of AM was accomplished by conjugating synthetic AM comprising amino acids 1-52 (Phoenix Pharmaceuticals, Inc., Mountainview, Calif.) with succinimidyl esters linked to biotin (Pierce Chemical Co., Rockford, Ill.), fluorescein (Molecular Probes, Inc., Eugene, Oreg.), or dinitrophenol (DNP; Molecular Probes, Inc.). Briefly, 100 μg of AM (16 μM) was dissolved in 1 ml of 50 mM sodium bicarbonate, pH 8.5, and the succinimidyl ester was added to yield a final molar concentration of 10:1 (linker:AM). The mixture was incubated with slow agitation for 1 hr at room temperature and the reaction was terminated by the addition of 0.1 M ethanolamine followed by another incubation for 1 hr. Unincorporated ligand was removed by extracting the AM using reverse phase SEP-PAK® C-18 solid-phase extraction cartridges (Waters, Milford, Mass.) and eluting the sample with acidic-isopropanol. The extract was lyophilized and reconstituted in 1 ml of TBS (0.05 M Tris-HCl, 0.15 M NaCl), 0.1% alkali-treated casein (ATC), 0.1% TWEEN® 20 nonionic detergent, and 0.05% TRITON® X-100 nonionic detergent, pH 7.4.

Row | Molecule | Storage stability (activity)
2 | Labeled AM: synthetic AM 1-52 conjugated via succinimidyl esters to biotin, fluorescein or dinitrophenol | without significant loss of activity

biological target: factor H (Homo sapiens, UniProt P08603); assay: Multi-well plate competition of fluorescein-labeled AM binding to factor H; design: purchased Sigma; settings: 50 nM fluorescein-labeled AM; factor H 5 ng/well; increasing concentrations of unlabeled competitor
Sequence (P08603 19-1231): as the sequence (P08603 19-1231, one chain of several) above
Procedure: Lane 1: horseradish peroxidase (5 μg), a glycosylated protein used as positive control; Lane 2: soybean trypsin inhibitor (5 μg), a non-glycosylated protein used as negative control; Lane 3: AMBP-1 (2 μg). […] Lane 1: isoelectric focusing markers; Lane 2: AMBP-1 (4 μg). […] Lane 1: AMBP-1 (100 ng); Lane 2: AMBP-1 (200 ng); Lane 3: commercially available human factor H (50 ng); Lane 4: human plasma (0.2 μl). […] Results represent one of two independent experiments. Values represent mean and standard deviation of three determinations. “B/B0” indicates the ratio of signals generated in the presence/absence of unlabeled competitor.
as §1

Row | Molecule | Effect on binding of fluorescein-labeled AM to factor H-coated plate
3 | calcitonin gene-related peptides [CGRP] | not affected
4 | proadrenomedullin N-terminal 20 peptide (ARLDVASEFRKKWNKWALSR) [PAMP] | not affected

biological target: T1, AMBP-1 (factor H) (Homo sapiens, UniProt P08603); assay: Ligand blot competition of labeled AM binding to plasma AMBP-1; settings: 7 μM unlabeled peptide, preincubation 6 hr at 4° C.
T1 construct: Total proteins derived from human plasma (2 μl) were electrophoretically fractionated; from tissue; host or cells: human plasma
T1 sequence (P08603 19-1231): as the sequence (P08603 19-1231, one chain of several) above
Procedure: Total proteins derived from human plasma (2 μl) were electrophoretically fractionated on 3-8% Tris-acetate gel (Novex, San Diego, Calif.) under non-reducing conditions. For the ligand blotting experiment, the proteins were transferred to a […] nitrocellulose membrane that was incubated for […] with 1% Nonidet P-40 (NP-40). Non-specific binding was further blocked with a 2 hr incubation in TBS containing 0.1% ATC. Incubations with 70 nM AM labeled with biotin, fluorescein, or DNP were carried out overnight at 4° C. in blocking buffer containing 0.1% TWEEN® 20 nonionic detergent. For biotin detection, the ligand blot was incubated with an avidin-biotin-peroxidase complex and the AEC reagent (Vector Laboratories, Inc., Burlingame, Calif.). For fluorescein and DNP, the ligand blots were incubated 1 hr at room temperature with rabbit anti-fluorescein or anti-DNP IgG, respectively, (1:1000 in incubation buffer; Molecular Probes, Inc.). Anti-rabbit antibody labeled with alkaline phosphatase (1:2000; Dako Corporation, Carpenteira, Calif.) was added for 0.5 hr, and the blot was developed using 4-nitro blue tetrazolium chloride/5-bromo-4-chloro-3-indolyl phosphate (NBT/BCIP) as the color-substrate solution (Roche Molecular Biochemicals, Indianapolis, Ind.).
Following this preincubation, labeled full-length AM was introduced and incubated overnight at 4° C.

Row | Molecule | Competition for labeled AM/AMBP-1 complex on ligand blot
5 | calcitonin gene-related peptides [CGRP] | only full-length AM was able to dissociate
6 | amylin (KCNTATCATQRLANFLVHSSNNFGAILSSTNVGSNTY; not fully specified (C-terminus, bridges); cysteine pairing not given here; UniProt P10997 34-70, looked up) | only full-length AM was able to dissociate
7 | insulin-like growth factor [IGF-1] | only full-length AM was able to dissociate
8 | AM13-52: AM truncated polypeptide | only full-length AM was able to dissociate
9 | AM16-21: AM truncated polypeptide (CRFGTC) | only full-length AM was able to dissociate
10 | proadrenomedullin N-terminal 20 peptide (ARLDVASEFRKKWNKWALSR) [PAMP] | only full-length AM was able to dissociate
11 | AM34-52: AM truncated polypeptide (TDKDKDNVAPRSKISPQGY) | only full-length AM was able to dissociate
12 | AM1-12: AM truncated polypeptide (YRQSMNNFQGLR) | only full-length AM was able to dissociate
13 | AM22-52: AM truncated polypeptide | only full-length AM was able to dissociate
